Sequences and labels used below:
B2: mCD137-mFc-Avi (Fc fusion)
chain: VQNSCDNCQPGTFCRKYNPVCKSCPPSTFSSIGGQPNCNICRVCAGYFRFKKFCSSTHNAECECIEGFHCLGPQCTRCEKDCRPGQELTKQGCKTCSLGTFNDQNGTGVCRPWTNCSLDGRSVLKTGTTEKDVVCGPPVVSFSPSTTISVTPEGGPGGHSLQVL
modifications: one biotin on the Avi sequence of each monomer (BirA); unbiotinylated in the SPR of Example 5.6
notes: also called mouse CD137-mFc-Avi; dimeric mouse CD137; not shown: mouse IgG2a Fc domain (mIgG2a Fc)

One assay has as its target T1, hCD137-Avi-His (human, UniProt Q07011 24-186, single biotin on the Avi sequence (BirA); unbiotinylated in the SPR of Example 5.6).
T1 construct: also called human CD137-Avi-His; monomeric human CD137
The assay can be described thus: SPR (Biacore), mAb2 captured by anti-human Fab, antigen in solution, 1:1 Langmuir. The protocol: (§1) An anti-human Fab capture antibody was immobilised on all four flow cells of a CM5 series S chip (GE Healthcare #BR-1005-30) to an average surface density of 6000 RU following the manufacturer's recommendations (GE Healthcare, human Fab capture Kit, #28958325). IEach mAb² was captured to approximately 150 RU by injecting a 3 μg/ml solution of mAb² diluted in HBS-EP+ buffer (GE Healthcare #BR1006-69) for 60 seconds at 30 μl/min. Then different concentrations of human, cyno or mouse CD137 antigen (unbiotinylated human, cyno or mouse CD137-mFc-Avi or human CD137-Avi-His) in HBS-EP+ buffer were flowed over the chip for 3 min at 60 μl/min and then allowed to dissociate for 10 minutes. After each antigen concentration the chip was regenerated by infecting 10 mM glycine pH 2.1 at a flow rate of 30 μl/min for 30 seconds. Buffer HBS-EP+ was injected before the highest concentration of antigen and after the lowest concentration of antigen for reference subtraction, and one of the concentrations at random was repeated twice. The binding kinetics were fit with a 1:1 Langmuir model to generate equilibrium binding constants (KD) for each sample. Data analysis was performed with BiaEvaluation software version 3.2.
In general terms: SPR reads the build-up and loss of mass on a sensor chip optically.

The target of assay [1] is T2, hCD137-mFc-Avi (human; mouse, UniProt Q07011 24-186, one biotin on the Avi sequence of each monomer (BirA); unbiotinylated in the SPR of Example 5.6).
T2 construct: Made in-house in HEK293-6E; also called human CD137-mFc-Avi; dimeric human CD137; not shown: mouse IgG2a Fc domain (mIgG2a Fc)
Described as above. The protocol:
as §1

The target in another assay is T3, cCD137-mFc-Avi (cynomolgus; mouse, one biotin on the Avi sequence of each monomer (BirA); unbiotinylated in the SPR of Example 5.6).
T3 construct: also called cyno CD137-mFc-Avi; dimeric cynomolgus CD137; not shown: mouse IgG2a Fc domain (mIgG2a Fc)
T3 chain: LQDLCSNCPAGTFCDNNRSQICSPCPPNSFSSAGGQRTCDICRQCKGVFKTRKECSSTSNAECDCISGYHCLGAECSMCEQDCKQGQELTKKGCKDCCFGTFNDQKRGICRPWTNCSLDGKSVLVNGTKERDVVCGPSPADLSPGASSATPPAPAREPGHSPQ
The assay is described as above. The protocol:
as §1

The target in the assay “mCD137-mFc-Avi” is B2. The description is as above. As for the experimental part:
as §1

The next assay addresses human CD40 (human, UniProt P25942 21-193). The assay can be described thus: SPR (Biacore T200), receptor amine-coupled to CM5 chip. The protocol:
(§2) The specificity of the anti-human CD137 Fcabs for human CD137 compared to other related TNFSFR family members was tested. 8 of the Fcabs were tested in mock mAb² (HeID1.3) format and measured by SPR in a Biacore T200 (GE Healthcare) by testing for binding to other human TNFRSF receptors: CD40, OX40 and GITR. Amine coupling (amine coupling kit, GE Healthcare, BR-1000-50) was used to coat human CD40, GITR and OX40 to approximately 1000 RU in Biacore CM5 chips (GE Healthcare, cat no 29149603). […] The chip was regenerated by injection of 10 mM glycine pH 2.5 for 12 s at 30 μl/min. Antibodies specific to the different TNFRSF members were used as positive controls to verify Biacore chip coating. Data was double reference subtracted and analysed using BIAevaluation 3.2 software.

In the next assay the target is T4, human OX40 (human, UniProt P43489 29-216, limits assumed).
T4 sequence (looked up): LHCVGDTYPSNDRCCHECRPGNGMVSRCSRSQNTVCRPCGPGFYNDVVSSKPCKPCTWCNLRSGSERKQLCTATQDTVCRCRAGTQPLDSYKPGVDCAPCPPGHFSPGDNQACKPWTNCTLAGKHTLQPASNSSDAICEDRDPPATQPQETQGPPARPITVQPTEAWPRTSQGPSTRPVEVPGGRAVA
The assay is described as above. The protocol: as §2

The target in a further assay is T5, human GITR (human, UniProt Q9Y5U5 26-161, limits assumed).
T5 sequence (looked up): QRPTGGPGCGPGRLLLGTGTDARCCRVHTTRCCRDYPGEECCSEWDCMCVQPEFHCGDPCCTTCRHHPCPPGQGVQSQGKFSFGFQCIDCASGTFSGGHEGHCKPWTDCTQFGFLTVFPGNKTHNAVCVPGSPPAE
The assay is described as above. The protocol:
as §2

For assay [2], the target named is T2, hCD137-mFc-Avi. The experiment in a line: SPR (Biacore T200), mAb2 captured by anti-human Fab, hCD137-mFc in solution, 1:1 Langmuir. As for the experimental part: For the hCD137-mFc-Avi antigen the following method was used: an anti-human Fab molecule was immobilised on a CM5 chip to a surface density of between 9,000 and 11,000 response units (RU). The antibodies were diluted to 4 μg/ml in HBS-EP buffer and captured by the anti-Fab molecule with a flow rate of […].
For mCD137-mFc-Avi binding kinetic determination, a different approach was used. […] The analysis of the data was done using the Biacore T200 evaluation software. Curves were subtracted against a blank flow cell and fitted using a 1:1 Langmuir binding model with mass transfer, setting RI to zero as constant and Rₘₐₓ to local.

For assay [3], the target named is human CD137, full length, on cells (human, UniProt Q07011 24-255). The assay can be described thus: cell-based or functional assay.
In assay [4] the target is mouse CD137, full length, on cells (mouse, UniProt P20334 24-256). The assay can be described thus: cell-based or functional assay.
Assay [5] addresses T6, mouse CD137 ligand on DO11.10 cells (mouse, UniProt P41274 1-309).
T6 construct: whole, on cells
T6 sequence (looked up): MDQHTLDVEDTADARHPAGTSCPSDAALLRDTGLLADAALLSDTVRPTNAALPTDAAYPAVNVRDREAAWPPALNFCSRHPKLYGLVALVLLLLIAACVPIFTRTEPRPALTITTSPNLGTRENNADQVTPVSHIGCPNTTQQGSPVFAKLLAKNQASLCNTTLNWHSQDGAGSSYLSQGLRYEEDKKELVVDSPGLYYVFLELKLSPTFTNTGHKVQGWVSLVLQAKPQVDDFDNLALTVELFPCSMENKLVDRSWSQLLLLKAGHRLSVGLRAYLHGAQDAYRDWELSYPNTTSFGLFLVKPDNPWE
The assay can be described thus: flow cytometry, detection with anti mouse Fc fragment antibody. As for the experimental part:
In more detail, materials from the same production lot were mixed together and analysed for stability and purity by size-exclusion high-performance liquid chromatography (SE-HPLC), SDS polyacrylamide gel electrophoresis (SDS-PAGE), and size-exclusion chromatography with multi-angle light scattering (SEC-MALS). […] Cells were incubated with the CD137 antigens for 1 hour, and then a fluorescently-labelled anti mouse Fc fragment antibody was used to detect cell binding.

The record followed here is patent US20250084176A1 (F STAR BETA, published 2025).

T2 sequence (Q07011 24-186): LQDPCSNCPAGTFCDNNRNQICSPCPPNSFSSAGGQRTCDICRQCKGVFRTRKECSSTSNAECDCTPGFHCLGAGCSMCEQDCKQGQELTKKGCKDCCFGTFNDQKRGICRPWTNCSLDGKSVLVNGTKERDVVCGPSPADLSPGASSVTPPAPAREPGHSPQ
T1 sequence (Q07011 24-186): as above
Chain of human CD40 (P25942 21-193 limits assumed): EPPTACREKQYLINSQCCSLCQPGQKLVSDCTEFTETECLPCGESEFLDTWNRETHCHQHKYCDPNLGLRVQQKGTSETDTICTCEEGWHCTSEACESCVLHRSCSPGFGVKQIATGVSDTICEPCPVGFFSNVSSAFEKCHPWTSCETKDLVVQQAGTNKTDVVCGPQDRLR
Chain of human CD137, full length, on cells (Q07011 24-255): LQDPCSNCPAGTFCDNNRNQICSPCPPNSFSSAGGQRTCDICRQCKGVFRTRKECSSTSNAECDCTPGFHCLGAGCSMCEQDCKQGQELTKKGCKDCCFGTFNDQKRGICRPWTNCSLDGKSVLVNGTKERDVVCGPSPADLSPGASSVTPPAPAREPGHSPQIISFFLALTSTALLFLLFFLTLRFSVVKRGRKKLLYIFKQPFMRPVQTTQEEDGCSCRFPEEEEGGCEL

B1: FS22-053-014/HelD1.3 (bispecific antibody, human IgG1, kappa)
heavy: QVQLQESGPGLVRPSQTLSLTCTVSGSTFSGYGVNWVRQPPGRGLEWIGMIWGDGNTDYNSALKSRVTMLVDTSKNQFSLRLSSVTAADTAVYYCARERDYRLDYWGQGSLVTVSSASTKGPSVFPLAPSSKSTSGGTAALGCLVKDYFPEPVTVSWNSGALTSGVHTFPAVLQSSGLYSLSSVVTVPSSSLGTQTYICNVNHKPSNTKVDKKVEPKSCDKTHTCPPCPAPELLGGPSVFLFPPKPKDTLMISRTPEVTCVVVDVSHEDPEVKFNWYVDGVEVHNAKTKPREEQYNSTYRVVSVLTVLHQDWLNGKEYKCKVSNKALPAPIEKTISKAKGQPREPQVYTLPPSRDELNPPYLFSNQVSLTCLVKGFYPSDIAVEWESNGQPENNYKTTPPVLDSDGSFFLYSKLTVYHWRWLDGNVFSCSVMHEALHNHYTQKSLSLSPG
light: DIQMTQSPASLSASVGETVTITCRASGNIHNYLAWYQQKQGKSPQLLVYNAKTLADGVPSRFSGSGSGTQYSLKINSLQPEDFGSYYCQHFWSTPRTFGGGTKLEIKRTVAAPSVFIFPPSDEQLKSGTASVVCLLNNFYPREAKVQWKVDNALQSGNSQESVTEQDSKDSTYSLSSTLTLSKADYEKHKVYACEVTHQGLSSPVTKSFNRGEC
notes: Mock mAb^2, IgG1 without LALA; also called FS22-053-14; FS22-053-014/HeID1.3
With B1, in the assay with hCD137-Avi-His, the “Human monomeric CD137 KD fold difference relative to human dimeric KD” value was 100 fold. Also, the Kd with hCD137-mFc-Avi [1] was 3.2 nM; in the assay with cCD137-mFc-Avi, 0.9 nM; in the assay with mCD137-mFc-Avi it was 24 nM; in the assay with hCD137-mFc-Avi [2], 4.4 nM. In addition, the binding result with human CD40, with human OX40 and in the assay with human GITR was “no binding (tested: starting at 1 µM)” in each case. The molecule also came in with a koff with hCD137-mFc-Avi [2] of 0.000366 s⁻¹. In the assay with hCD137-mFc-Avi [2], this molecule had an association rate constant (kon) of 83000 M⁻¹ s⁻¹. For the same molecule, the “IL-2 release, human CD137 DO11.10 T cell activation assay, Protein L: +XL EC50” value in assay [3] stood at 0.73 nM. For the same molecule, the “IL-2 release, mouse CD137 DO11.10 T cell activation assay, Protein L: +XL EC50” value in assay [4] was determined as 2.04 nM. Further, in [4], the “IL-2 release, mouse CD137 DO11.10 T cell activation assay, Protein L: +XL Emax” value is 28100 pg/mL.

In the case of B2, the binding result in assay [5] is given as “binds”.

In general, Kd refers to the free concentration of one partner at which half of the binding sites on the other are occupied at equilibrium, for simple one-to-one binding. Broadly, the koff is the rate constant with which the complex falls apart. In general, kon refers to the rate constant with which the complex forms. A low value points to slower complex formation.
